Measurements taken from patent US20220162312A1 (WUXI BIOLOGICS IRELAND, published 2022).
Changes are numbered by the printed parent chain. Numbers in names are those of the source.

T1: CD20 on Raji cells (CD20+/CD3- cells) (human, UniProt P11836 1-297)
T1 sequence (looked up): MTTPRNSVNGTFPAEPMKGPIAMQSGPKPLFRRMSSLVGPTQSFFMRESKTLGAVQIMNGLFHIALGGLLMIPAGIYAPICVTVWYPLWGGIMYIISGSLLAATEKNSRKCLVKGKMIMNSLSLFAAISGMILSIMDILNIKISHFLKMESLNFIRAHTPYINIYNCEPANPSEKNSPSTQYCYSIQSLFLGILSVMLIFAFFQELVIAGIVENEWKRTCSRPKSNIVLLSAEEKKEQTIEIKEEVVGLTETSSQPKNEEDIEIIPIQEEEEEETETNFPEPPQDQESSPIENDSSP

B1: W3278-U2T3.F18R-1.uIgG4.SP (bispecific antibody)
heavy 1: QVQLQQPGAELVKPGASVKMSCKASGYTFTSYNMHWVKQTPGRGLEWIGAIYPGNGDTSYNQKFKGKATLTADKSSSTAYMQLSSLTSEDSAVYYCARSTYYGGDWYFNVWGAGTTVTVSAASTKGPSVFPLAPCSRSTSESTAALGCLVKDYFPEPVTVSWNSGALTSGVHTFPAVLQSSGLYSLSSVVTVPSSSLGTKTYTCNVDHKPSNTKVDKRVGGGGSGGGGSQVQLVQSGAEVKKPGSSVKVSCKASGFAFTDYYIHWVRQAPGQGLEWMGWISPGNVNTKYNENFKGRVTITADKSTSTAYMELSSLRSEDTAVYYCARDGYSLYYFDYWGQGTLVTVLEDLKNVFPPEVAVFEPSEAEISHTQKATLVCLATGFYPDHVELSWWVNGKEVHSGVCTDPQPLKEQPALQDSRYALSSRLRVSATFWQNPRNHFRCQVQFYGLSENDEWTQDRAKPVTQIVSAEAWGRYGPPCPPCPAPEFLGGPSVFLFPPKPKDTLMISRTPEVTCVVVDVSQEDPEVQFNWYVDGVEVHNAKTKPREEQFNSTYRVVSVLTVLHQDWLNGKEYKCKVSNKGLPSSIEKTISKAKGQPREPQVYTLPPCQEEMTKNQVSLWCLVKGFYPSDIAVEWESNGQPENNYKTTPPVLDSDGSFFLYSRLTVDKSRWQEGNVFSCSVMHEALHNHYTQKSLSLSLG
heavy 2: QVQLQQPGAELVKPGASVKMSCKASGYTFTSYNMHWVKQTPGRGLEWIGAIYPGNGDTSYNQKFKGKATLTADKSSSTAYMQLSSLTSEDSAVYYCARSTYYGGDWYFNVWGAGTTVTVSAASTKGPSVFPLAPCSRSTSESTAALGCLVKDYFPEPVTVSWNSGALTSGVHTFPAVLQSSGLYSLSSVVTVPSSSLGTKTYTCNVDHKPSNTKVDKRVESKYGPPCPPCPAPEFLGGPSVFLFPPKPKDTLMISRTPEVTCVVVDVSQEDPEVQFNWYVDGVEVHNAKTKPREEQFNSTYRVVSVLTVLHQDWLNGKEYKCKVSNKGLPSSIEKTISKAKGQPREPQVCTLPPSQEEMTKNQVSLSCAVKGFYPSDIAVEWESNGQPENNYKTTPPVLDSDGSFFLVSRLTVDKSRWQEGNVFSCSVMHEALHNHYTQKSLSLSLG
light 1: QIVLSQSPAILSASPGEKVTMTCRASSSVSYIHWFQQKPGSSPKPWIYATSNLASGVPVRFSGSGSGTSYSLTISRVEAEDAATYYCQQWTSNPPTFGGGTKLEIKRTVAAPSVFIFPPSDEQLKSGTASVVCLLNNFYPREAKVQWKVDNALQSGNSQESVTEQDSKDSTYSLSSTLTLSKADYEKHKVYACEVTHQGLSSPVTKSFNRGEC
light 2: DIVMTQSPDSLAVSLGERATINCKSSQSLLNSRTRKNYLAWYQQKPGQPPKLLIYWASTRQSGVPDRFSGSGSGTDFTLTISSLQAEDVAVYYCTQSHTLRTFGGGTKVEIKPDIQNPDPAVYQLRDSKSSDKSVCLFTDFDSQTQVSQSKDSDVYITDKCVLDMRSMDFKSNSAVAWSQKSDFACANAFQNSIIPEDTFFPSPESS
B2: W3278-U3T2.F18R-1.uIgG4.SP (bispecific antibody)
heavy 1: EVQLVESGGGLVQPGRSLRLSCAASGFTFNDYAMHWVRQAPGKGLEWVSTISWNSGSIGYADSVKGRFTISRDNAKKSLYLQMNSLRAEDTALYYCAKDIQYGNYYYGMDVWGQGTTVTVSSASTKGPSVFPLAPCSRSTSESTAALGCLVKDYFPEPVTVSWNSGALTSGVHTFPAVLQSSGLYSLSSVVTVPSSSLGTKTYTCNVDHKPSNTKVDKRVGGGGSGGGGSQVQLVQSGAEVKKPGSSVKVSCKASGYSFTTYYIHWVRQAPGQGLEWMGWIFPGNDNIKYSEKFKGRVTITADKSTSTAYMELSSLRSEDTAVYYCAIDSVSIYYFDYWGQGTLVTVLEDLKNVFPPEVAVFEPSEAEISHTQKATLVCLATGFYPDHVELSWWVNGKEVHSGVCTDPQPLKEQPALQDSRYALSSRLRVSATFWQNPRNHFRCQVQFYGLSENDEWTQDRAKPVTQIVSAEAWGRYGPPCPPCPAPEFLGGPSVFLFPPKPKDTLMISRTPEVTCVVVDVSQEDPEVQFNWYVDGVEVHNAKTKPREEQFNSTYRVVSVLTVLHQDWLNGKEYKCKVSNKGLPSSIEKTISKAKGQPREPQVYTLPPCQEEMTKNQVSLWCLVKGFYPSDIAVEWESNGQPENNYKTTPPVLDSDGSFFLYSRLTVDKSRWQEGNVFSCSVMHEALHNHYTQKSLSLSLG
heavy 2: EVQLVESGGGLVQPGRSLRLSCAASGFTFNDYAMHWVRQAPGKGLEWVSTISWNSGSIGYADSVKGRFTISRDNAKKSLYLQMNSLRAEDTALYYCAKDIQYGNYYYGMDVWGQGTTVTVSSASTKGPSVFPLAPCSRSTSESTAALGCLVKDYFPEPVTVSWNSGALTSGVHTFPAVLQSSGLYSLSSVVTVPSSSLGTKTYTCNVDHKPSNTKVDKRVESKYGPPCPPCPAPEFLGGPSVFLFPPKPKDTLMISRTPEVTCVVVDVSQEDPEVQFNWYVDGVEVHNAKTKPREEQFNSTYRVVSVLTVLHQDWLNGKEYKCKVSNKGLPSSIEKTISKAKGQPREPQVCTLPPSQEEMTKNQVSLSCAVKGFYPSDIAVEWESNGQPENNYKTTPPVLDSDGSFFLVSRLTVDKSRWQEGNVFSCSVMHEALHNHYTQKSLSLSLG
light 1: not shown
light 2: not shown
light 3: B1 light 2 with Q61K, H98F, T99I
notes: Human IgG4 (S228P) knobs-into-holes, same F18R-1 format as m3, so L1 probably stands twice; also called W3278-U3T2.F18R-1.ulgG4.SP

Legend:
[1] = molecular target: T1, CD20 on Raji cells (CD20+/CD3- cells); test: cell-based or functional assay
[2] = molecular target: T1, CD20 on Raji cells (CD20+/CD3- cells); test: cell-based or functional assay; remark: listed apart in the source
[3] = molecular target: T1, CD20 on Raji cells (CD20+/CD3- cells); test: cell-based or functional assay; remark: listed apart in the source
[4] = molecular target: T1, CD20 on Raji cells (CD20+/CD3- cells); test: cell-based or functional assay; remark: listed apart in the source
[5] = molecular target: T1, CD20 on Raji cells (CD20+/CD3- cells); test: flow cytometry on Raji cells (CD20+/CD3-)
Method: (§1) The binding of W3278 BsAb to target cells was determined by flow cytometry. Briefly, 1×10⁵/well of target cells (CD3+/CD20− cells or CD20+/CD3− cells) were incubated with serial dilutions of W3278 BsAb or human IgG4 isotype control antibody at 4° C. for 60 minutes. After incubation, cells were washed twice with cold 1% BSA/1×PBS and Alexa Fluor647 conjugated Goat anti-human IgG Fc (Jackson-109-605-098) was then added and incubated for 30 minutes at 4° C. After washing twice, the geometric mean fluorescence (MFI) of stained cells was measured using a FACS Canto II cytometer (BD Biosciences). Wells containing no antibody or fluorescent secondary antibody only were used to establish background fluorescence. The EC₅₀ values of cell binding were determined using GraphPad Prism 5 software (GraphPad Software, La Jolla, Calif.) with values calculated using a four-parameter non-linear regression analysis.

[6] = molecular target: T2, CD3 on Jurkat cells (CD3+/CD20- cells) (human, UniProt P07766 23-207; P04234 22-171; P09693 23-182); test: flow cytometry on Jurkat cells (CD3+/CD20-)
T2 construct: whole, on cells; also called human CD3; Jurkat 2B8
T2 sequence (P07766 23-207, chain 1 of 3): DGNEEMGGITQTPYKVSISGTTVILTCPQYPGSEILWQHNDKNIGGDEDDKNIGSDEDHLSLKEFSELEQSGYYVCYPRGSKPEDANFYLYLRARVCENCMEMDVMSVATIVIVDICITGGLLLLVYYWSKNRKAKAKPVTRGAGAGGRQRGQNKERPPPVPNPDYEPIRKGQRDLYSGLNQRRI
T2 sequence (P04234 22-171, chain 2 of 3): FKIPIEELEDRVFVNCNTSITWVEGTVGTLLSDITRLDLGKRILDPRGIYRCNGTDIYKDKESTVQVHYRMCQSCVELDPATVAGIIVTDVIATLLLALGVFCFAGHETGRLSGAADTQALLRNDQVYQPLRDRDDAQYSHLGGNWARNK
T2 sequence (P09693 23-182, chain 3 of 3): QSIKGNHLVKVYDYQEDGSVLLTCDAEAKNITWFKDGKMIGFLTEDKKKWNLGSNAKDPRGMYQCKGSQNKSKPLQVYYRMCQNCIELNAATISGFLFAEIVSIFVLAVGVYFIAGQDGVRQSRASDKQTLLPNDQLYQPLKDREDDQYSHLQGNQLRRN
Method: as §1

| Binder | CD4+ T cell IL-2 release EC50, with Raji cells [1] | CD4+ T cell TNF-a release EC50, with Raji cells [1] | cytotoxicity EC50, NAMALWA cells, CD8+ T cells as effectors [2] | cytotoxicity EC50, Raji cells, CD8+ T cells as effectors [2] | cytotoxicity EC50, Ramos cells, CD8+ T cells as effectors [2] | T cell CD69 expression EC50 (Table 5B), CD4+/Raji [3] | T cell CD69 expression EC50 (Table 5B), CD8+/Raji [3] | T cell CD69 expression EC50 (Table 5A as titled), CD4+/Raji [4] | T cell CD69 expression EC50 (Table 5A as titled), CD8+/Raji [4] | EC50 [5] | TOP MFI [5] | EC50 [6] | TOP MFI [6] |
| --- | --- | --- | --- | --- | --- | --- | --- | --- | --- | --- | --- | --- | --- |
| B1 | 11.4 pM | 13.5 pM | 46.8 pM | 0.52 pM | 1.25 pM | 0.2 pM | 0.4 pM | 0.6 pM | 0.8 pM | – | – | – | – |
| B2 | – | – | – | – | – | – | – | – | – | 1.3 nM | 55400 MFI | 26.6 nM | 536 MFI |
